{"source": "paper PMC9602544", "molecular_target": "human plasma fibronectin (human)", "sequence (P02751 32-2477)": "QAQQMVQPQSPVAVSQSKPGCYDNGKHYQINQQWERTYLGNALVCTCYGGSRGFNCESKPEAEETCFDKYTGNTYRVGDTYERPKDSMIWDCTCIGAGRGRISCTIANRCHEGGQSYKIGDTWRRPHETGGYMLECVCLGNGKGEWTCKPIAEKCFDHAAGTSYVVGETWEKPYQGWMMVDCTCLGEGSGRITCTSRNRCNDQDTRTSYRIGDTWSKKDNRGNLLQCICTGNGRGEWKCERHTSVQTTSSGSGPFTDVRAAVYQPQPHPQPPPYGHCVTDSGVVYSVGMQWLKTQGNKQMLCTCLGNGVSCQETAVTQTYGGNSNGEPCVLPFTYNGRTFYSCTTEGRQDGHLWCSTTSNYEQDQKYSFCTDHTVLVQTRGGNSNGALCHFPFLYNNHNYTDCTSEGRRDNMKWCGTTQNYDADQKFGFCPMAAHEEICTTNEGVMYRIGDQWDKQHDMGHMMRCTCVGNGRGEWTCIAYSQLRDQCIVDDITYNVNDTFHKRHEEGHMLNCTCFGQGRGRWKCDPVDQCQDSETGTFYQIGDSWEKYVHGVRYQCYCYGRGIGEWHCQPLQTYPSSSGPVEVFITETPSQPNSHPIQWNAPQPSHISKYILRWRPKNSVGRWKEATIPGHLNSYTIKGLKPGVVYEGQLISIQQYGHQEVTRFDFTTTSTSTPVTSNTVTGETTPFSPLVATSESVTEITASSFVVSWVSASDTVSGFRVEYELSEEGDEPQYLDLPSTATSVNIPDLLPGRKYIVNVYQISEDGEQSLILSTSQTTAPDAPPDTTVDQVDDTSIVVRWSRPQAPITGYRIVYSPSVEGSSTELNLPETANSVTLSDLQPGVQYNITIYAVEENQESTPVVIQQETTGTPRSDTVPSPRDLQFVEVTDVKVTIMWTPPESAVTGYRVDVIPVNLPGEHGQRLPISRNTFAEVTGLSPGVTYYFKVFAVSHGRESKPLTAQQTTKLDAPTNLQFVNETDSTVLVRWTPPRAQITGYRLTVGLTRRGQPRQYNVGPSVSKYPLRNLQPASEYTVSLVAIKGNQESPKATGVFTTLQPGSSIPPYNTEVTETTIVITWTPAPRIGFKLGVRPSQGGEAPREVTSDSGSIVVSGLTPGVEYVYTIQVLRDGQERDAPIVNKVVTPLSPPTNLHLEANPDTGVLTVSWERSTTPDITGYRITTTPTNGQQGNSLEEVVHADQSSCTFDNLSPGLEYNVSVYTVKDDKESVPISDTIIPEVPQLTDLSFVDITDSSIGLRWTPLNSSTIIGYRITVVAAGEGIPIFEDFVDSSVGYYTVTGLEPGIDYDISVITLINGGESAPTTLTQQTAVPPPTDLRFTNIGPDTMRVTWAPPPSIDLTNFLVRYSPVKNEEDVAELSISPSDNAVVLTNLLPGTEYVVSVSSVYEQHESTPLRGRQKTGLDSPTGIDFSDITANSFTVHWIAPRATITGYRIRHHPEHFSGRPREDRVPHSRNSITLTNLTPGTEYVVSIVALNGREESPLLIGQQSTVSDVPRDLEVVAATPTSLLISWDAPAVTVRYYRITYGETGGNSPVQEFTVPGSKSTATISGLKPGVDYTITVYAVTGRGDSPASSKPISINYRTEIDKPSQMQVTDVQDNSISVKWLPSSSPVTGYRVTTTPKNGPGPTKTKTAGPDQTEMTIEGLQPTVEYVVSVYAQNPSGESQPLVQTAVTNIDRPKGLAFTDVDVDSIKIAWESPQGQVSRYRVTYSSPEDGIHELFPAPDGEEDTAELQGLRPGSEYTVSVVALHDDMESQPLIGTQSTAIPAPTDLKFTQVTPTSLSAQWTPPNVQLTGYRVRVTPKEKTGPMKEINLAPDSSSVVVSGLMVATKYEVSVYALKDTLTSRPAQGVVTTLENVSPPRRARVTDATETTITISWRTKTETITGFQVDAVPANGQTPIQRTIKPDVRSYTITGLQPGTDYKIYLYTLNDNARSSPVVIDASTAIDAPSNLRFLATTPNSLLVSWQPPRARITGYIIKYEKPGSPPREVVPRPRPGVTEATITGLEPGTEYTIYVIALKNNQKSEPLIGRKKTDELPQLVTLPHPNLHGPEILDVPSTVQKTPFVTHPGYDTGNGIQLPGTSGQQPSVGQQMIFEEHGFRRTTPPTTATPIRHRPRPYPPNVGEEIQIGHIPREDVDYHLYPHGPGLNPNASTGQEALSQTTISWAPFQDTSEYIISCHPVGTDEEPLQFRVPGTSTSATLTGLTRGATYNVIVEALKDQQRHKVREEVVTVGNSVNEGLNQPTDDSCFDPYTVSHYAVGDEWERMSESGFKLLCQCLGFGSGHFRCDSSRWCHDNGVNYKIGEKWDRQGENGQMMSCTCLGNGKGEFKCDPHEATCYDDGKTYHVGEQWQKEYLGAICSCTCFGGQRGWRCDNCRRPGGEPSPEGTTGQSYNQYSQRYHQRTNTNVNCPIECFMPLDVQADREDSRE", "experiment": "ELISA; whole-cell ELISA; 1 ug human plasma Fn coated on Maxisorp wells, blocked with 2% BSA; ca. 2.5 x 10^7 washed bacteria added for 2 h at 37°C; attached bacteria detected with anti-B. henselae IgG, absorbance at 450 nm; triplicate"}
{"substance": "Bartonella adhesin A (BadA) of B. henselae Marseille, wild type (from UniProt Q5MWV9 48-3082) (natural protein)", "values": [{"measurement": "absorbance at 450 nm, whole-cell ELISA", "value": 0.908}]}
